Results on 22 sequences are retold here after the DeepSol protein solubility set.

A short description of this series: soluble on expression in E. coli; label from the status in PepcDB or PDB records.
Regarding “MKFLTVSDDMNFLRQVNTLVAGKGDMDSVIIGEGDAKGLGSKVLYRAKKGTPFDAVSEGILKIAGNYDYIAIGSTEVGREIAGYLSFKTGFYTATEIFSLEFNGQKAHTKRFFYGGKTVIEEESDARILTVAPGVIEAKDLGTTPEIRDLEIGQSRIKITKFVSKAGGSVRLEDAKVIVSVGRGIGSKENIAKIEPLAKALNGEIAGSRPVCMDYGWLSEDRQVGLSGKKVSPKVYIALGISGQIQHIAGMRNSKTVIAINKDKNAPIFQECDYGIVGDLFTVVPKILEQLKQ”, the “soluble on expression in E. coli” value is “not soluble”.
Next, “MGSDKIHHHHHHDKAYTDAESYTKGLHKIYSVWALSGQDGSSSSDISGLDAGNTALLRCWWTLQEQPTDEMKNAWNDAWCTEVNYMTWTTNKVEPIEGVYQRCMYIVALVNEFLKNIPNAPESIDKESYIAQARFNRAFAYYVLMDMFALPPFITEKNYSIEPAPLSREDLFNWIEAELNEIKPNLPSPRSEYGVADQAVASALLARMYLNAEIYTGKARYTECINACNEVIKAGYQLADNYADLFKADNGENPDTKKEIIYPIIFDGDKTQSWGMAAIIIGARGAEDKDVLLAHSGVDQGWAGFRATSNLVHLFDFQNDEEPKASEIQDKRGIFYDKGRSIDITSSVSGTFETEGWSVFKFSNLNSNGQPGKNTLWVDTDFPMFRLGDIYLMYAEAVARGGEGSKASAVEYINALRKRAYGDDKHNISENWLEENNFRNLLDERGRELYWEGIRRTDLVRFDLLTSGSYTWDFKGGINTGVGVNKRYNVYPIPVTDLTVNGNLQQNEGY”: “not soluble”; “MLKEHSKKQHLRREVQEKLKNEAIVAAQTLSTAVVDHLNAKVAQAYGNQKRLDVEAKRFENNSAALAKQTEQWLFITEGLNYALKEIGDVENWSKTIENDMKIITETLRRAYEAKNPPLPPNQANPASH”: “not soluble”; “MSEEDKAKKLENLLKLLQLNNDDTSKFTQEQKKAMKDHKFWRTQPVKDFDEKVVEEGPIDKPKTPEDISDKPLPLLSSFEWCSIDVDNKKQLEDVFVLLNENYVEDRDAGFRFNYTKEFFNWALKSPGWKKDWHIGVRVKETQKLVAFISAIPVTLGVRGKQVPSVEINFLCVHKQLRSKRLTPVLIKEITRRVNKCDIWHALYTAGIVLPAPVSTCRYTHRPLNWKKLYEVDFTGLPDGHTEEDMIAENALPAKTKTAGLRKLKKEDIDQVFELFKRYQSRFELIQIFTKEEFEHNFIGEESLPLDKQVIFSYVVEQPDGKITDFFSFYSLPFTILNNTKYKDLGIGYLYYYATDADFQFKDRFDPKATKALKTRLCELIYDACILAKNANMDVFNALTSQDNTLFLDDLKFGPGDGFLNFYLFNYRAKPITGGLNPDNSNDIKRRSNVGVVML”: “soluble”.
For the sequence “MTKKIIGIAGNQLLQAAEVFHGNQVTYTPQGFVSAVQAAGGVPLVLPIGPKELAATYIQQIDKLLLAGGQDVAPEFYGQEPHIKLEETNRDRDEFELALIEEALKQNKPIFAVCRGMQLVNVALGGTLYQDLSMYPQWSVKHGQQPTQPIFATHRIDVEPDSQLSNIYGTTGQVNSYHHQALHTLGKDLRVTAWSSDGLAEAVESTNEQQPLLAVQWHPELMYARDAKSQALFNYFVQKL”, the “soluble on expression in E. coli” value was “not soluble”.
Next, “MAEIYEEGDESVDVNKESEVKTELGKGGGDENVLQFLDSLDGYLTLMDSVNSKLREGWFDLASARHSMGTLRINSTLLDLKYHPASSTLQVTDQDVESLGSVPHFALSKWASKGGSRKGKDFSTDTDSEIGSPLSPQLRHRGVSEEKPSAKDETVLAADEEIKKERAKSLSVFGGLVSPKLRGAQQSFETALETLVEIANMRASMISAFERITEK”: “soluble”.
The same measure for “MLRLSAPGQLDDDLCLLGDVQVPVFLLRLGEASWALVEGGISRDAELVWADLCRWVADPSQVHYWLITHKHYDHCGLLPYLCPRLPNVQVLASERTCQAWKSESAVRVVERLNRQLLRAEQRLPEACAWDALPVRAVADGEWLELGPRHRLQVIEAHGHSDDHVVFYDVRRRRLFCGDALGEFDEAEGVWRPLVFDDMEAYLESLERLQRLPTLLQLIPGHGGLLRGRLAADGAESAYTECLRLCRRLLWRQSMGESLDELSEELHRAWGGQSVDFLPGELHLGSMRRMLEILSRQALPLD”: “not soluble”; for “MAGDPMSRPPVPPFTCKTAIEKVRLAEDGWNSRDAAKVALAYTVDTRWRNRVEFATNREEAQAFLTRKWNREHEYRLIKELWAFTGNRIAVRYAYEYRDDNGQWFRAYGNENWEFAEDGLMAHRHACINEMPIAESDRLYHWPLGRRPDDHPSLTDLGLLEHHHHHH”: “not soluble”.
With “QIIKDVVVWKTSLQDSDTPEKTLVFTATIKPGWHLYDQNLPEDGPTSTEFLFDKMTGAKLVGKAIPDKAPVNRYDKQFEMDLRWYEKTVSFRQKIQVTDPAKFSIKGGVRFMACNDENCLPPETSDFSFDASMIKSKAAAPDTEAEAAEAVAAETAADTTSQTDAAEALSSKADLWTPVVSELRAYGDDTLKQAESAPWKIFLYG”, the “soluble on expression in E. coli” value is on record as “not soluble”.
The same measure for “TAELKICRVNRNSGSCLGGDEIFLLCDKVQKEDIEVYFTGPGWEARGSFSQADVHRQVAIVFRTPPYADPSLQAPVRVSMQLRRPSDRELSEPMEFQYLPDTDDRHRIEEKRKRTYETFKSIMKKSPFNGPTEPRP”: “soluble”; for “MDTYQNMNFHDNINSNIPKNYNSFYEELKKNLNESDILTIAYEVEVLKNIKKINCDEIGKNWDYSFIDSEYGKSTLVILEVGYHLISPYIENNENKKKKLQLFLLLINSMYFPNPYHNANHGATVCHLSKCLAHITDYDSYLNNTYMICYLIASIAHDVGHPGKTNSYLSETNHILSIRYNDMSILENYHCSITFSILQLIGFDFLINNEDTKLVEKNNYTNMRKFIIELIISTDMKLHFEYVDIFKKRKKSQNFDISDTDAINLGTINIKLADIGHTCLKWKDHAKWTMLVSEEFFSQKRVEELHKNKNIDPLNFSNFGKEDNIDEGMIFNYENIYINYINNINNINTYDYSYIKLNFIHHHDFVKSIPSTQVYFFEIIVMPLIKELQSMEKSKKEITQKVLHNLNINLQTWRLIEKNINLFYNTEKMTGTDYYKNLEKQKLLRGIRLLDIAEEDVISLTKNFKEEIKHG”: “not soluble”.
For “MSLTTVGIRGTFFDFVDDPWKHIGNEQAAARFHQDGLMVVTDGVIKAFGPYEKIAAAHPGVEITHIKDRIIVPGFIDGHIHLPQTRVLGAYGEQLLPWLQKSIYPEEIKYKDRNYAREGVKRFLDALLAAGTTTCQAFTSSSPVATEELFEEASRRNMRVIAGLTGIDRNAPAEFIDTPENFYRDSKRLIAQYHDKGRNLYAITPRFAFGASPELLKACQRLKHEHPDCWVNTHISENPAECSGVLVEHPDCQDYLGVYEKFDLVGPKFSGGHGVYLSNNEFRRMSKKGAAVVFCPCSNLFLGSGLFRLGRATDPEHRVKMSFGTDVGGGNRFSMISVLDDAYKVGMCNNTLLDGSIDPSRKDLAEAERNKLSPYRGFWSVTLGGAEGLYIDDKLGNFEPGKEADFVALDPNGGQLAQPWHQSLIADGAGPRTVDEAASMLFAVMMVGDDRCVDETWVMGKRLYKKSEGHHHHHH”, the “soluble on expression in E. coli” value is listed as “soluble”.
Next, “GGCYERIFAVPQQERTSLRVVTALAHGCDLVITRAGPTPRTYTPLQTQRFRNSLRSDAGCVIMMGDHVVSPAARLASAVVGYHGIGKGTGRIKAVEITVTGIAKGFYRTSRVIVGKHIAPAAEKTTMKVV”: “not soluble”.
Take “GSDTPSNLMGKQQWKALVEEAIHSDWVKFRFQAAKNTWGKVFHNEVFSSIEKDGETYRANQYLFALEQLDATNIFDQYVIESMIKMLESGELNDPVAINIAQSSLSQPSFIRWTTNMLEKHSKVASKLHFEIPEECFIDHPHHTALLCNAIRQSGAEFGVDNYGRNFQSLEYIQEFRPNYVKLDYLFTHNLHDEKQKFTLTSISRTAHNLGITTIASRIETQIQLDFLTEHFVEVFQGFIVDKE”: the “soluble on expression in E. coli” value is “not soluble”.
Next, “MKVAIIAANGGLFDAYKVINIGTAGAAADAEVGVFFTGEGLNLIHKEAHKQWPIPEGKEHFQQGFQKANVPSIAELLQMAQEMGVKLIACQMTMDVMGLDKDQFVDGIEVAGAATFLQFAKDADITLAF”: “not soluble”; “MVKFTTFLCIIALLLCSTLTHASARLNPTSVYPEENSFKKLEQGEVICEGVGEEECFLIRRTLVAHTDYIYTQNHNP”: “soluble”; “MSLEKQIESYYQEIAQLIIDMIPEEWAEVRFYAQEDHDGWKIFFFHYLSASSDEWTKDIDIRDVIKVPQDEFMEKYNELSFCISDFRKDYAEAFGEPWMSFQMTFYASGKFNIDFYYDKNPFDTFLTRLAWQYEHFGTIPEDSFYKETLNEYLEEKAQGKRYPFLEPLKEEEGHHHHHH”: “soluble”.
The same measure for “MGLIKAATSSVGGGLADQWLEVIEPDNMGDTTVMTKGVFVRKDDKRGSNRKGTDDVLTDGSVVHVYPNMMMLLVDGGKIIDYTAEEGYYTVKNDSAPSMFNGSLKDAIAETFSRFKFGGVTPQKQQVFYINLQEIKGIKFGTPAPLNYFDNFYNAELFLRAHGNYSIKITDPLLFYTNAIPKNQTQVDINDINEQYLAEFITALQAAINQMSADGQRISYVPSKSVELSKYMQTALDEDWRTNRGMEIVSVAVASISYTDDSTKLINMRNEGAMLSDPGVREGYVQGSLARGMEAAGKNEGGAMSGFMGVGMGMNANGNYFAQASQTNQQQMQEKQNQQNAQGATDTWTCPQCGTENTGKFCSNCGTPKPTNEKPKLEMKCSECSEIVDLSNGIPKFCPHCGKPFQGVPL”: “not soluble”; for “MSALLPIINRLILQSPDSRSELAAFAGKTLTLNIAGLKLAGRITEDGLLSAGNGFADTEITFRNSAVQKILQGGEPGAGDIGLEGDLILGIAVLSLLGSLRSRASDELARIFGTQADIGSRAADIGHGIKQIGRNIAEQIGGFSRESESANIGNEALADCLDEISRLRDGVERLNERLDRLERDIWID”: “not soluble”; for “FEELAKQIKLAKTPRLLISLKAEVPMAIGWLKPVVLLPASMVTGLNAAQLEMLILHELAHIRRHDYLVNFLQTLIELLFFFHPSVHWIGKQMRNEREYCSDDIAVQHCGDAIAYAHTLTDTASLCAKNHFHTIPTMAMAASGGDL”: “not soluble”.
The same measure for “MAGEILVIGGGISGLTAAIEAAETGYDVILLEKNPYLGGRVSQLNKYFPKLCPPFCGLEILFKRMKSTPKLKYFTNAEVQEISGESGNFTVKVKLKPRYVNENCTACGACKEVCPIEAPDEYNFGLKKKKAIDLPNIMAMPFQYYIDDKYCNKCGECVSACKYNAIDLNEEEREMTLNVSSIIVATGWKPYDATKLDNLGYGKYKNVITNMEMERLASPNGPTGGVIQTMDGKPIETIAFVQCAGSRDENHLPYCSAICCLASLKQATYVREQYPDAKIYIFYIDIRAFGRYEDFFAKVKADEKIELIKGKVAKVEEVDGKLVVTAEDTLTGVKSKKEVDMVVLATGMQPAIEPIPGLELDEYGFVKPKPGIIPVGVAAMPMEVASANETATAAALKAIQLARRLEHHHHHH”: “soluble”; for “MGSDKIHHHHHHMSTSAPINRRLTKKIYVGDVAIGGDAPISVQSMTNTDTCDVAATVAQIERCVEAGADLMRVSTPTMDTVKAFGEIRKLVSVPLIADVHFDHKIALAVAAAGADCLRINPGNIGSDAKVREVVACAKHYNIPIRIGVNAGSLEKDIQRKYKEPNGAAMLESAMRHIDILERLNFDQYKVSVKASNVFLTMDAYRLISAQIDNPLHLGVTEAGVYRTGSVKSAIALGGLLLDGIGDTIRISLAAEPEEEIKIGFDILKSLNIRSNGVNFIACPSCSRQEFDVIRVMTALESRLEDIREPMNLSVIGCKVNGPGEAKEADIGIVGAAPKSLVYRMGEKSHLIDTDNLVDEIEGMVRAHAEELAKKRENEIIRVR”: “not soluble”.
